Patent US20100068208A1, “Degranulation inhibitor” (priority 2005, published 2010)
Like-named read-outs stand apart in the source and are kept apart here. Values belong to the molecule of their own block, whether it stands above or below them. Where no end group is shown, it is not given here.

How the values were obtained:
TGR12 = type: cell-based, human
Experimental: CHO/dhfr^− cells (hereinafter CHO) were incubated in α-MEM (Invitrogen) supplemented with 10% fetal calf serum. After a termination codon in the TGR12-encoding nucleotide sequence was removed, a nucleotide sequence ligated with the nucleotide sequence encoding GFP (Wako Pure Chemical) [hereinafter briefly referred to as TGR12-GFP (DNA having the nucleotide sequence represented by SEQ ID NO: 31)] was incorporated into vector plasmid pAKKO-111H (the same vector plasmid as pAKKO1.11H described in Biochim. Biophys. Acta, 1219, 251-259 (1994)) for animal cell expression, and the vector plasmid was stably expressed to establish TGR12-GFP-expressed CHO cell line (hereinafter CHO-TGR12). CHO-TGR12 was incubated in nucleic acid-free α-MEM medium (Invitrogen) containing 10% dialyzed fetal calf serum.
CHO-TGR12 was plated in a 96-well plate at a density of 30,000 cells/well. After incubation overnight, the medium was discarded and 100 μL/well of assay buffer [Hank's Balanced Salt Solution (Invitrogen), 20 mM HEPES (Dojin Chemical Laboratory) and 2.5 mM Probenecid (Sigma)] containing 4 μM Fluo3-AM (Dojin Chemical Laboratory) was added, which was then allowed to stand for an hour at 37° C. […] After the cells were washed with assay buffer, fluorescence reflecting changes in intracellular calcium levels was assayed on FLIPR (Molecular Device). Ten seconds after initiation of the assay, 50 μL of a sample was added at a rate of 50 μL/second. Fluorescence measurement was taken every 1 second during the first 60 seconds and then every 6 seconds during the next 120 seconds; the highest fluorescence intensity over a 3 minute period was taken as the maximum activity under the stimulation condition, representing the mean value of 3 wells. The EC50 values were determined using Graphpad PRISM 4 (Graphpad Software).

[1] = test system: human mast cell line LAD 2; assay: TGR12 ligand-dependent degranulation of LAD 2 (β-hexosaminidase release); type: cell-based
Experimental: Human mast cell line LAD 2 was incubated in StemPro-34 medium (Invitrogen) supplemented with 100 ng/mL of stem cell factor (Immuno-Biological Laboratories Co., Ltd.). […] Subsequently, Tyrode's buffer containing 50 μL of TGR12 ligand (Peptide Institute, Inc.) in various concentrations was added and incubation was continued at 37° C. for further 20 minutes to induce degranulation. The degree of degranulation was determined by assaying the β-hexosaminidase activity in the degranulation assay supernatant as given below. The supernatant was dispensed into a 96-well plate and 0.1M citrate (pH 4.5)/1 mM 4-methyl umbelliferyl-2-acetamido-2-deoxy-beta-D-glucopyranoside (Wako Pure Chemical) in 5-fold of the supernatant was added thereto, followed by incubation at 37° C. for an hour. […] The activity was then assayed using Fusion-α (Perkin-Elmer). The β-hexosaminidase activity was also shown by the activity in the supernatant obtained by centrifugation after freezing and thawing LAD 2 four times, which was made total β-hexosaminidase activity in LAD 2, and the degree of degranulation was shown as the percentage of the β-hexosaminidase activity in the LAD 2 supernatant based on the total β-hexosaminidase activity.

[2] = target: TGR12-GFP (fused protein of human TGR12 and GFP, encoded by the DNA of SEQ ID NO: 31), stably expressed on CHO cells (CHO-TGR12 of Example 1) (human) (UniProt Q96LB1); assay: cell-based or functional assay
human TGR12 (untagged) = target: T1, human TGR12 (untagged) (human, UniProt Q96LB1 1-330); assay: cell-based or functional assay
T1 sequence: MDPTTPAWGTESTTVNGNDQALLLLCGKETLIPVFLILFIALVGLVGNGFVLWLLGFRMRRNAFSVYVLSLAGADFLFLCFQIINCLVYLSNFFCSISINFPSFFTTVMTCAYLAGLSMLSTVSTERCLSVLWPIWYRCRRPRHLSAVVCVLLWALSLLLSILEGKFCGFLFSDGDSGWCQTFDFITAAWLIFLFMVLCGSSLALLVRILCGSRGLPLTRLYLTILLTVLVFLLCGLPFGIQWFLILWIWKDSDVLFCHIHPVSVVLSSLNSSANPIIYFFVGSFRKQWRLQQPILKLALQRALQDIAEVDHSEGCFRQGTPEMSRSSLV

[3] = target: T2, TGR12-GFP (fused protein of human TGR12 and GFP, encoded by the DNA of SEQ ID NO: 31), stably expressed on … (human, UniProt Q96LB1 1-330); assay: cell-based or functional assay
T2 sequence: T1 sequence

Molecule: CC[C@H](C)[C@H](NC(=O)CNC(=O)[C@H](CC(=O)O)NC(=O)[C@H](CO)NC(=O)[C@@H](N)Cc1c[nH]cn1)C(=O)N[C@@H](Cc1ccccc1)C(=O)N[C@H](C(=O)N[C@@H](CC(=O)O)C(=O)N[C@@H](CO)C(=O)N[C@@H](Cc1ccc(O)cc1)C(=O)N[C@@H](CO)C(=O)N[C@@H](CCCNC(=N)N)C(=O)N[C@@H](Cc1ccc(O)cc1)C(=O)N[C@@H](CCCNC(=N)N)C(=O)N[C@@H](CCCCN)C(=O)N[C@@H](CCC(N)=O)C(=O)N[C@@H](CCSC)C(=O)N[C@@H](C)C(=O)N[C@H](C(=O)N[C@@H](CCCCN)C(=O)N[C@@H](CCCCN)C(=O)N[C@@H](Cc1ccc(O)cc1)C(=O)N[C@@H](CC(C)C)C(=O)N[C@@H](C)C(=O)N[C@@H](C)C(=O)N[C@H](C(=O)N[C@@H](CC(C)C)C(=O)NCC(=O)N[C@@H](CCCCN)C(=O)N[C@@H](CCCNC(=N)N)C(=O)N[C@@H](Cc1ccc(O)cc1)C(=O)N[C@@H](CCCCN)C(=O)N[C@@H](CCC(N)=O)C(=O)N[C@@H](CCCNC(=N)N)C(=O)N[C@H](C(=O)N[C@@H](CCCCN)C(=O)N[C@@H](CC(N)=O)C(=O)N[C@@H](CCCCN)C(N)=O)C(C)C)C(C)C)C(C)C)[C@@H](C)O [PACAP-38]
- maximum activity in the calcium increasing effect (TGR12; CHO-TGR12, 0.3 nM, highest fluorescence intensity over 3 minutes): 287
- maximum activity in the calcium increasing effect (TGR12; CHO-TGR12, 3 nM): 410
- maximum activity in the calcium increasing effect (TGR12; CHO-TGR12, 30 nM): 195
- maximum activity in the calcium increasing effect (TGR12; CHO-TGR12, 300 nM): 23043
- maximum activity in the calcium increasing effect (TGR12; CHO-TGR12, 3000 nM): 23315
- EC50 (TGR12; CHO-TGR12, read-out: EC50 in the calcium increasing effect on CHO-TGR12): ~161 nM
- stimulated degranulation (β-hexosaminidase in supernatant, % of total) ([1]; LAD 2, 10 nM): 7.4%
- stimulated degranulation (β-hexosaminidase in supernatant, % of total) ([1]; LAD 2, 30 nM): 24.8%
- stimulated degranulation (β-hexosaminidase in supernatant, % of total) ([1]; LAD 2, 100 nM): 49.4%
- stimulated degranulation (β-hexosaminidase in supernatant, % of total) ([1]; LAD 2, 300 nM): 65.8%
- stimulated degranulation (β-hexosaminidase in supernatant, % of total) ([1]; LAD 2, 1 μM): 68.9%
- stimulated degranulation (β-hexosaminidase in supernatant, % of total) ([1]; LAD 2, 3 μM): 63.3%
- EC50 ([1]; LAD 2, read-out: EC50 in the degranulation on LAD 2): ~51 nM

- EC50 in the calcium increasing effect on CHO-TGR12 [2]: 98 nM
- maximum activity in the calcium increasing effect (FLIPR), CHO-TGR12, at 0.3 nM (fluorescence intensity) [2]: 255
- maximum activity in the calcium increasing effect (FLIPR), CHO-TGR12, at 3 nM (fluorescence intensity) [2]: 1620
- maximum activity in the calcium increasing effect (FLIPR), CHO-TGR12, at 30 nM (fluorescence intensity) [2]: 22300
- maximum activity in the calcium increasing effect (FLIPR), CHO-TGR12, at 300 nM (fluorescence intensity) [2]: 24100
- maximum activity in the calcium increasing effect (FLIPR), CHO-TGR12, at 3000 nM (fluorescence intensity) [2]: 23700
- EC50 in the degranulation on LAD 2 (human TGR12 (untagged)): 13 nM
- degranulation of LAD 2 (beta-hexosaminidase release, % of total) at 3 nM (human TGR12 (untagged)): 6.3%
- degranulation of LAD 2 (beta-hexosaminidase release, % of total) at 10 nM (human TGR12 (untagged)): 30.7%
- degranulation of LAD 2 (beta-hexosaminidase release, % of total) at 30 nM (human TGR12 (untagged)): 52.1%
- degranulation of LAD 2 (beta-hexosaminidase release, % of total) at 100 nM (human TGR12 (untagged)): 65.2%
- degranulation of LAD 2 (beta-hexosaminidase release, % of total) at 300 nM (human TGR12 (untagged)): 67.7%
- degranulation of LAD 2 (beta-hexosaminidase release, % of total) at 1 µM (human TGR12 (untagged)): 69.3%
- maximum activity in the calcium increasing effect (FLIPR), RBL2H3-TGR12, at 1 nM (fluorescence intensity) (human TGR12 (untagged)): 41
- maximum activity in the calcium increasing effect (FLIPR), RBL2H3-TGR12, at 10 nM (fluorescence intensity) (human TGR12 (untagged)): 2090
- maximum activity in the calcium increasing effect (FLIPR), RBL2H3-TGR12, at 100 nM (fluorescence intensity) (human TGR12 (untagged)): 11100
- maximum activity in the calcium increasing effect (FLIPR), RBL2H3-TGR12, at 1 µM (fluorescence intensity) (human TGR12 (untagged)): 12000
- maximum activity in the calcium increasing effect (FLIPR), RBL2H3-TGR12, at 10 µM (fluorescence intensity) (human TGR12 (untagged)): 12300
Molecule: human PAMP12 (proadrenomedullin N-terminal 20 peptide (9-20)) (from UniProt P35318 30-41)

- maximum activity in the calcium increasing effect (FLIPR), CHO-TGR12, at 0.3 nM [3]: 67 fluorescence intensity
- maximum activity in the calcium increasing effect (FLIPR), CHO-TGR12, at 3 nM [3]: 54 fluorescence intensity
- maximum activity in the calcium increasing effect (FLIPR), CHO-TGR12, at 30 nM [3]: 94 fluorescence intensity
- maximum activity in the calcium increasing effect (FLIPR), CHO-TGR12, at 300 nM [3]: 17900 fluorescence intensity
- maximum activity in the calcium increasing effect (FLIPR), CHO-TGR12, at 3000 nM [3]: 23600 fluorescence intensity
- degranulation of LAD 2 (beta-hexosaminidase release, % of total) at 10 nM (human TGR12 (untagged)): 1.6%
- degranulation of LAD 2 (beta-hexosaminidase release, % of total) at 30 nM (human TGR12 (untagged)): 2.8%
- degranulation of LAD 2 (beta-hexosaminidase release, % of total) at 100 nM (human TGR12 (untagged)): 26.5%
- degranulation of LAD 2 (beta-hexosaminidase release, % of total) at 300 nM (human TGR12 (untagged)): 52.8%
- degranulation of LAD 2 (beta-hexosaminidase release, % of total) at 1 µM (human TGR12 (untagged)): 62.2%
- degranulation of LAD 2 (beta-hexosaminidase release, % of total) at 3 µM (human TGR12 (untagged)): 58.9%
- maximum activity in the calcium increasing effect (FLIPR), RBL2H3-TGR12, at 1 nM (human TGR12 (untagged)): -2 fluorescence intensity
- maximum activity in the calcium increasing effect (FLIPR), RBL2H3-TGR12, at 10 nM (human TGR12 (untagged)): 33 fluorescence intensity
- maximum activity in the calcium increasing effect (FLIPR), RBL2H3-TGR12, at 100 nM (human TGR12 (untagged)): 1570 fluorescence intensity
- maximum activity in the calcium increasing effect (FLIPR), RBL2H3-TGR12, at 1 µM (human TGR12 (untagged)): 11200 fluorescence intensity
- maximum activity in the calcium increasing effect (FLIPR), RBL2H3-TGR12, at 10 µM (human TGR12 (untagged)): 12800 fluorescence intensity
Molecule: DRMPCRNFFWKTFSSCK (peptide, UniProt O00230 89-105, looked up, not fully specified; ends and bridges not checked) [human cortistatin-17]
